Assay results taken from publication PMC4538832, “Structures of the T. brucei kRNA editing factor MRB1590 reveal unique RNA-binding pore motif contained within an ABC-ATPase fold”.

T1: MRB1590(10-668) (Trypanosoma brucei, UniProt UPI00067E648B 10-668)
T1 sequence: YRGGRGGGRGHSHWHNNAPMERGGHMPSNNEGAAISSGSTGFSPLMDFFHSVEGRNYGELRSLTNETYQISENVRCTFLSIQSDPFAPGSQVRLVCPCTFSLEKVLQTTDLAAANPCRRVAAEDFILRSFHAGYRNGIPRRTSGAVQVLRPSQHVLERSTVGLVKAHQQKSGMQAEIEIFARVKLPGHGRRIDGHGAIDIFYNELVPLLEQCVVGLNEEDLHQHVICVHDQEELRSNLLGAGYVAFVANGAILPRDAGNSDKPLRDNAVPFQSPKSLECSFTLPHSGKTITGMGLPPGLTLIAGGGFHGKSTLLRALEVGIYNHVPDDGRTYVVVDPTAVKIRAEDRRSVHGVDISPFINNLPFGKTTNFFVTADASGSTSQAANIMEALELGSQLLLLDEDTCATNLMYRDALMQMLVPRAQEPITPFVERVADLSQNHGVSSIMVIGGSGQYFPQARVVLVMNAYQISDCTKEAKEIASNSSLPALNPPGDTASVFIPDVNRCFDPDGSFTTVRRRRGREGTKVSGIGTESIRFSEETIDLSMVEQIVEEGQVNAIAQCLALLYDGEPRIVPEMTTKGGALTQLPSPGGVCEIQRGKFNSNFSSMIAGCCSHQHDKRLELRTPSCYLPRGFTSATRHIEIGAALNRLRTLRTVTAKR

B1: U15 RNA (ssRNA)
RNA: UUUUUUUUUUUUUUU
B2: COX II #1 (ssRNA)
RNA: ACAAUAUCAAGUUUAGGUAUAAAGUAGA
B3: COX II #2 (ssRNA)
RNA: GAACCUGGUAGGUGUAAUGAAAUAAUUUUGU
B4: RSP12 #1 (ssRNA)
RNA: CUAAUACACUUUUGAUAACAAACUAAAGUAAAAAGGCGAG
B5: RSP12 #2 (ssRNA)
RNA: GAUUUUUUGAGUGGGACUGGAGAGAAAGAGCCGUUCGAGC
B6: NAD7 #1 (ssRNA)
RNA: UGAUACAAAAAAACAUGACUACAUGAUAAGUA
B7: NAD7 #2 (ssRNA)
RNA: GAGAAGGCGAGGGCGACGGGCAAAAGAUUUU
B8: A15 RNA (ssRNA)
RNA: AAAAAAAAAAAAAAA
B9: GC-rich sequence RNA (A6 pause site, 21 mer) (ssRNA)
RNA: AGGCGGGCGGGCGACGGCGGU
B10: GC-rich hairpin RNA (structured_RNA)
RNA: AGAGGCGGGCGGGCGACGGCGGU
B11: Complement of GC-rich RNA (ssRNA)
RNA: ACCGCCGUCGCCCGCCCGCCU
B12: dsGC-rich RNA (dsRNA)
RNA 1: AGGCGGGCGGGCGACGGCGGU
RNA 2: ACCGCCGUCGCCCGCCCGCCU

Tests used:
[1] = biological target: T1, MRB1590(10-668); assay: fluorescence polarization; ADP, Mg2+; FP: 20 mM Tris-HCl pH 7.5, 150 mM NaCl, 5% glycerol, 1 mM MgCl2, 2 mM ADP or AMP-PNP, 1 nM 3'-fluoresceinated RNA (heated to 99 C, slow cooled), 25 C; settings: protein: recombinant, chain copies: 2
[2] = biological target: MRB1590 F95A (Trypanosoma brucei, UniProt UPI00067E648B 10-668, F95A); assay: as above; settings: protein: recombinant; chain copies: 2; label: 3' fluorescein
[3] = biological target: MRB1590 R199A-R200A (Trypanosoma brucei, UniProt UPI00067E648B 10-668, R199A;R200A); assay: as above; settings: protein: recombinant; chain copies: 2; label: 3' fluorescein
[4] = biological target: MRB1590 Y637A (Trypanosoma brucei, UniProt UPI00067E648B 10-668, Y637A); assay: fluorescence polarization; ADP, Mg2+; little effect vs wt; FP: 20 mM Tris-HCl pH 7.5, 150 mM NaCl, 5% glycerol, 1 mM MgCl2, 2 mM ADP or AMP-PNP, 1 nM 3'-fluoresceinated RNA (heated to 99 C, slow cooled), 25 C; settings: protein: recombinant; chain copies: 2; label: 3' fluorescein
[5] = biological target: MRB1590 R191A (Trypanosoma brucei, UniProt UPI00067E648B 10-668, R191A); assay: fluorescence polarization; ADP, Mg2+; small effect vs wt; FP: 20 mM Tris-HCl pH 7.5, 150 mM NaCl, 5% glycerol, 1 mM MgCl2, 2 mM ADP or AMP-PNP, 1 nM 3'-fluoresceinated RNA (heated to 99 C, slow cooled), 25 C; settings: protein: recombinant; chain copies: 2; label: 3' fluorescein
[6] = biological target: T1, MRB1590(10-668); assay: fluorescence polarization; ADP, Mg2+; 1 RNA : 2 subunits; FP: 20 mM Tris-HCl pH 7.5, 150 mM NaCl, 5% glycerol, 1 mM MgCl2, 2 mM ADP or AMP-PNP, 1 nM 3'-fluoresceinated RNA (heated to 99 C, slow cooled), 25 C; settings: protein: recombinant; chain copies: 2; label: 3' fluorescein
[7] = biological target: T1, MRB1590(10-668); assay: fluorescence polarization; AMP-PNP (table header says ATP), Mg2+; FP: 20 mM Tris-HCl pH 7.5, 150 mM NaCl, 5% glycerol, 1 mM MgCl2, 2 mM ADP or AMP-PNP, 1 nM 3'-fluoresceinated RNA (heated to 99 C, slow cooled), 25 C; settings: protein: recombinant; chain copies: 2; label: 3' fluorescein

| Binder | Kd ([1]; label: 3' fluorescein) | other results |
| --- | --- | --- |
| B1 | 182 ± 30 nM | – |
| B2 | 44 ± 2 nM | – |
| B3 | 43 ± 1.6 nM | – |
| B4 | 63 ± 2.5 nM | – |
| B5 | 27 ± 2.8 nM | – |
| B6 | 50 ± 4 nM | – |
| B7 | 7.8 ± 0.5 nM | – |
| B8 | 437 ± 80 nM | – |
| B9 | – | binding signal [2]: 10 fold reduction vs wt; binding signal [3]: 590 fold reduction vs wt; binding result [4]: binds; binding result [5]: binds; Kd [6]: 2.2 ± 0.2 nM |
| B10 | – | binding result ([1]; label: 3' fluorescein, hairpin): no binding |
| B11 | 395 ± 95 nM | Kd [7]: 377 ± 69 nM |
| B12 | – | Kd [1]: 50 ± 15 nM |
